Source: patent US20230203155A1 (ALMAC DISCOVERY, published 2023)

How the values were obtained:
[1] = target: T1, human ROR2-hFc fusion protein (extracellular domain) (human); assay: SPR, ROR2-hFc on chip
T1 construct: Whole entry 'human ROR2-Fc (CHO)'; also called hROR2
Description: (§1) Binding kinetics were determined using a Pioneer Surface Plasmon Resonance (SPR) instrument (SensiQ/Pall ForteBio). […] VNARs and VNAR-Fc molecules were tested at various concentrations and the Ka (M⁻¹s⁻¹), Kd (s⁻¹) and KD (nM) values were determined using QDat software (SensiQ/Pall ForteBio).
(§2) Binding kinetics were determined using a SPR (as previously described) or using Biolayer interferometry (K2 Octet instrument/Pall ForteBio). […] VNARs and VNAR-Fc molecules were tested at various concentrations and the Ka (M−1s−1), Kd (s−1) and KD (nM) values were determined using the Octet data analysis HT software (Pall ForteBio).

[2] = target: T2, mouse ROR1-Fc fusion protein (mouse); assay: SPR, mouse ROR1 on chip
T2 construct: Whole entry 'mouse ROR1-Fc (CHO)'; also called mROR1
Description: as §1

[3] = target: T3, human ROR1 on the surface of ROR1hi human cancer cell lines (human, UniProt Q01973 30-937); assay: flow cytometry on A549 (ROR1hi) cells, PE-anti Myc tag Ab
T3 construct: whole, on cells; Cell line is named under assay; also called cell surface ROR1
Description: FIG. 9: Cell surface binding of VNAR (His₆Myc tag) molecules to A549 (ROR1^hi) lung cancer cells by flow cytometry.
Adherent human cancer cells were detached from tissue culture flasks by incubating with 0.1% EDTA/PBS solution at 37° C. for −10 minutes or until cells detached easily. Cells were re-suspended in 5 ml ice-cold PBS/2% FCS in 15 ml tubes and centrifuged at 1500 rpm for 5 mins at 4° C. Supernatant was removed and the cell pellet re-suspended in 1-2 ml of PBS/2% FCS. A cell count was performed using a Z1 Coulter Particle Counter (Beckman Coulter) and 5×10\hat{ }5 cells were aliquoted per test sample. Cells were incubated with 100 μl of either VNAR (His₆Myc tagged), VNAR-Fc molecules or ROR1 mAb and IgG controls for 1 hour on ice. Excess VNAR, VNAR-Fc or mAb was removed by adding 5 ml of ice-cold PBS/2% FCS, followed by centrifugation at 1500 rpm for 5 mins at 4° C. The supernatant was removed and a second wash performed by re-suspending the cell pellet in 1 ml of ice-cold PBS/2% FCS and adding a further 4 ml of ice-cold PBS/2% FCS. Samples were again centrifuged at 1500 rpm for 5 min at 4° C. Supernatant was removed and excess liquid removed by blotting the tubes on tissue paper. […] Cells were incubated with chosen secondary antibody for 30 min on ice. Cells were washed to remove excess antibody as described earlier. […]

[4] = target: T4, human ROR1-hFc fusion protein (extracellular domain) (human); assay: SPR, ROR1-hFc on chip
T4 construct: Whole entry 'human ROR1-Fc (CHO)'; also called hROR1; huROR1-Fc
Description: as §1

D3 his myc = target: T5, D3 his myc; assay: competition ELISA: D3 pre-incubated with peptide, residual binding to coated huROR1-Fc
T5 construct: VNAR; made in E. coli and in HEK293 (expression system under assay); also called D3 WT

[5] = target: T6, B1 VNAR with C-terminal His6Myc tag; assay: competition ELISA: B1 pre-incubated with peptide, residual binding to coated huROR1-Fc
T6 construct: VNAR, E. coli; also called B1 his myc; B1HisMyc monomer
Description: (§3) In brief, ELISA method as follows. Wells coated with 100 ng antigen and incubated, covered, at room temperature for 2 hr. Plates washed 3×400 ul per well with PBST (PBS+0.05% Tween 20 (v/v)), then blocked with 4% skimmed milk powder (w/v) in PBST for 1 hour at 37° C. Plates washed as before plus additional wash in PBS alone. Binding proteins were diluted in 4% milk PBST and incubated overnight at 4° C. Plates washed 3× with PBST, 3×PBS and binding detected using appropriate secondary detection antibody in 4% milk PBST, room temperature 1 hour. […] Rabbit anti-Mouse IgG H&L, HRP (Abcam #ab97046) [0360] Mouse anti-polyHis, HRP (Sigma #A7058)
(§4) Competition assays were conducted as described in the methods with all four peptides reconstituted in PBS.

D3-[G4S]5-D3 his myc = target: T7, D3-[G4S]5-D3 his myc; assay: competition ELISA: D3-D3 pre-incubated with peptide, residual binding to coated huROR1-Fc
T7 construct: VNAR homodimer by genetic fusion; also called D3-D3; D3 dimer

P3A1 his myc = target: T8, P3A1 his myc; assay: competition ELISA: P3A1 pre-incubated with peptide, residual binding to coated huROR1-Fc
T8 construct: VNAR; also called P3A1 6xHis myc
Description: as §3, §4
T8 VNAR: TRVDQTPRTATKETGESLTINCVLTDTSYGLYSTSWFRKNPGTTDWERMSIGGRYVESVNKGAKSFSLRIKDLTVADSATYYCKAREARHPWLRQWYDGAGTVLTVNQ

[6] = target: T1, human ROR2-hFc fusion protein …; assay: monoclonal phage ELISA on coated ROR2-Fc
[7] = target: T9, rat ROR1-Fc fusion protein (rat); assay: SPR, rat ROR1 on chip
T9 construct: Whole entry 'rat ROR1-Fc (CHO)'; also called rROR1
Description: as §1

[8] = target: T4, human ROR1-hFc fusion protein …; assay: SPR, ROR1-hFc on chip; remark: listed apart in the source
Description: as §1

[9] = target: T1, human ROR2-hFc fusion protein …; assay: SPR, ROR2-hFc on chip; remark: listed apart in the source
[10] = target: T1, human ROR2-hFc fusion protein …; assay: SPR, ROR2-hFc on chip; remark: listed apart in the source
Description: as §1
(§5) The ability of the VNAR-MMAE conjugates and VNAR-fluorescein conjugates to bind to human ROR1 ECD was determined by SPR using the procedures described above.

[11] = target: T4, human ROR1-hFc fusion protein …; assay: SPR, ROR1-hFc on chip; remark: listed apart in the source
Description: as §1, §5

[12] = target: T3, human ROR1 on the surface of ROR1hi …; assay: flow cytometry, A549 (ROR1hi) cells, 4°C
[13] = target: T4, human ROR1-hFc fusion protein …; assay: BLI, ROR1-hFc on sensor, 200 nM HSA present
Description: as §2

[14] = target: T2, mouse ROR1-Fc fusion protein; assay: ELISA
[15] = target: T4, human ROR1-hFc fusion protein …; assay: BLI, ROR1-hFc on sensor
Description: as §2

human serum albumin = target: T10, human serum albumin (human, UniProt P02768 25-609); assay: BLI, HSA on sensor
T10 construct: also called HSA
Description: as §2

T2 sequence (chain, as listed by the source limits assumed): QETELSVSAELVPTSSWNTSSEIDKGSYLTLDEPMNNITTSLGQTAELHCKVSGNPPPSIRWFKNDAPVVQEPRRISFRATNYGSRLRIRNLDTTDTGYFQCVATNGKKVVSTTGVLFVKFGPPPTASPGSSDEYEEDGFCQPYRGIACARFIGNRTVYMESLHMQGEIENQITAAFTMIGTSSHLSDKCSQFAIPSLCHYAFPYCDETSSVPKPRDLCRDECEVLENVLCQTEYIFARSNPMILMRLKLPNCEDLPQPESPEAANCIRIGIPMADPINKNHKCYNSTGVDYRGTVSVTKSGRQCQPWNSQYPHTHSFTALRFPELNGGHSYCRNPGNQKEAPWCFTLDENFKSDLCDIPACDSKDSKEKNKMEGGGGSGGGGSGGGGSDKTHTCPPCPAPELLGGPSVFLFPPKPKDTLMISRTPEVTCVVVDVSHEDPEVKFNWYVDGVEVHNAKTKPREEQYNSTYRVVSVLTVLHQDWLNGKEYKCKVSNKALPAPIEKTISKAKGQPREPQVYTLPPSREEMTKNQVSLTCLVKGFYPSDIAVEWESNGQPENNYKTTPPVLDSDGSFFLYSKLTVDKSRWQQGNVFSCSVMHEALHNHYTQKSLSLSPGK
T4 sequence (chain, as listed by the source limits assumed): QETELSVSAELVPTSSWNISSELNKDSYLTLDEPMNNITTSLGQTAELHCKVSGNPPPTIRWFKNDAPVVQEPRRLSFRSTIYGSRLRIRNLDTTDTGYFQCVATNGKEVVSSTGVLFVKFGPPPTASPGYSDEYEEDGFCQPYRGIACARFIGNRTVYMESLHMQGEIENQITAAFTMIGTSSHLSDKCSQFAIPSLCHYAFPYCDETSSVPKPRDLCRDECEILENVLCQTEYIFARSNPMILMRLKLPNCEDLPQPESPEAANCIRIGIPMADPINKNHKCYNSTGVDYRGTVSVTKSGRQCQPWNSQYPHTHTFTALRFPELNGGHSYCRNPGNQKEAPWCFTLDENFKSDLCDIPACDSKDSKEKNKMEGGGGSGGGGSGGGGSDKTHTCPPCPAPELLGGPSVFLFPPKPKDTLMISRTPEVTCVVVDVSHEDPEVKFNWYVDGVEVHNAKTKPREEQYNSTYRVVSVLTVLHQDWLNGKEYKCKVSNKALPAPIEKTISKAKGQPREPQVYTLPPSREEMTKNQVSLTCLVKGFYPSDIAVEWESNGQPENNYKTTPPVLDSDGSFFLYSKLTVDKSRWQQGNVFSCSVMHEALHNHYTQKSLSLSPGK
T9 sequence (chain, as listed by the source limits assumed): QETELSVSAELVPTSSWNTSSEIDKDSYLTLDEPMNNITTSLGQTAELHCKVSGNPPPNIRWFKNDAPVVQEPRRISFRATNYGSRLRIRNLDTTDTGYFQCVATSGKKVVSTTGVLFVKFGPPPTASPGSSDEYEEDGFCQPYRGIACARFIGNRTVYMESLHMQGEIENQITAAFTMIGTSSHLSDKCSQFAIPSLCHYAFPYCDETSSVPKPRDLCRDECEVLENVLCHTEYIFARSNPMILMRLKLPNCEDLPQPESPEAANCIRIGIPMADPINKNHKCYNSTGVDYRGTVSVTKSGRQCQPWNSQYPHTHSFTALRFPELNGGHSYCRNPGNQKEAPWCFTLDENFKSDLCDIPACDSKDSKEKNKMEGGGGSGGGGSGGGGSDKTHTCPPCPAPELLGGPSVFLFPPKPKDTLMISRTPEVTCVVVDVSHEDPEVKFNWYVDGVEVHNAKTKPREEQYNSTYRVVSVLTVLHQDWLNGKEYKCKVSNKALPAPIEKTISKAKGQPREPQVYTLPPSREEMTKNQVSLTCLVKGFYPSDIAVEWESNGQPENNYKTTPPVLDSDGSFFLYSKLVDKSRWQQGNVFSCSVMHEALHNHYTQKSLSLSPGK
T1 sequence (chain, as listed by the source limits assumed): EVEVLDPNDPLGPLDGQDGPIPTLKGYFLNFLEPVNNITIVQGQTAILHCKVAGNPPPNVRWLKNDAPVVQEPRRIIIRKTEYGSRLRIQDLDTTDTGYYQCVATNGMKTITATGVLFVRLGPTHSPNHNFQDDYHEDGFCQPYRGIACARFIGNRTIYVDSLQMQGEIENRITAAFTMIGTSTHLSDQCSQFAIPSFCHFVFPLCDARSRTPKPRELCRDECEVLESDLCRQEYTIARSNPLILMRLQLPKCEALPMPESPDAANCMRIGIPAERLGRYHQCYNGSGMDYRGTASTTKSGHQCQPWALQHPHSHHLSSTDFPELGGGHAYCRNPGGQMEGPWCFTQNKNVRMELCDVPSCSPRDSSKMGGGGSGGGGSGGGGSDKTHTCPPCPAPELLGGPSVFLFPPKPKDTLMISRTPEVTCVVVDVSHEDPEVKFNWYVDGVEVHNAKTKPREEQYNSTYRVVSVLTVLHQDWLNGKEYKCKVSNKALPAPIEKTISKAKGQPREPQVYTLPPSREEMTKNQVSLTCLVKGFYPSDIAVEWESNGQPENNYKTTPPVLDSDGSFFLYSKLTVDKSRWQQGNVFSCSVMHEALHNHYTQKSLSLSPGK

B1: E7 his myc (VNAR)
VNAR: TRVDQTPRTATKETGESLTINCVVTGAKYGLAATYWYRKNPGSSNQERISISGRYVESVNKRTMSFSLRIKDLTVADSATYYCKAYPWAMWGQWYDGAGTVLTVNQ
notes: VNAR
binding result [1]: no binding | Kd [2]: 1.4 nM | koff [2]: 0.002 s⁻¹ | kon [2]: 1.41e+06 M⁻¹ s⁻¹ | binding result [3]: binds | Kd [4]: 11.1 nM | koff [4]: 0.0118 s⁻¹ | kon [4]: 1.11e+06 M⁻¹ s⁻¹

B2: Peptide 2 (peptide)
peptide: RSTIYGSRLRINLDTTDTGYFQ
notes: linear ROR1 ECD peptide; insoluble in PBS
binding result (D3 his myc): no binding | binding result [5]: no binding (tested: 10 uM) | binding result (D3-[G4S]5-D3 his myc): no binding | binding result (P3A1 his myc): no binding (tested: about 500 uM as the axis is labelled)

B3: Peptide 3 (peptide)
peptide: CQPWNSQYPHTHTFTALRFP
notes: linear ROR1 ECD peptide
binding result (D3 his myc): no binding | binding result [5]: no binding (tested: 10 uM) | binding result (D3-[G4S]5-D3 his myc): no binding | binding result (P3A1 his myc): no binding (tested: about 500 uM as the axis is labelled)

B4: Peptide 4 (peptide)
peptide: QCVATNGKEVVSSTGVLFVKFGPPPTASPGYSDEYE
notes: linear ROR1 ECD peptide
binding result (D3 his myc): no binding | binding result [5]: no binding (tested: 10 uM) | binding result (D3-[G4S]5-D3 his myc): no binding | binding result (P3A1 his myc): no binding (tested: about 500 uM as the axis is labelled)

B5: P3A1 (VNAR)
VNAR: TRVDQTPRTATKETGESLTINCVLTDTSYGLYSTSWFRKNPGTTDWERMSIGGRYVESVNKGAKSFSLRIKDLTVADSATYYCKAREARHPWLRQWYDGAGTVLTVN
notes: also called P3A1 phage clone; P3A1 monoclonal phage
binding result [6]: no binding

B6: E7 (VNAR)
VNAR: TRVDQTPRTATKETGESLTINCVVTGAKYGLAATYWYRKNPGSSNQERISISGRYVESVNKRTMSFSLRIKDLTVADSATYYCKAYPWAMWGQWYDGAGTVLTVN
notes: also called E7 phage clone; E7 monoclonal phage
binding result [6]: no binding

B7: CPF7 his myc (VNAR)
VNAR: TRVDQTPRTATKETGESLTINCVVTGAKYGLFATYWYRKNPGSSNQERISISGRYVESVNKRTMSFSLRIKDLTVADSATYYCKAVFMPQHWHPAAHWYDGAGTVLTVNQ
notes: VNAR
binding result [1]: no binding | Kd [7]: 68.6 nM | koff [7]: 0.0366 s⁻¹ | kon [7]: 772000 M⁻¹ s⁻¹ | Kd [2]: 19.1 nM | koff [2]: 0.032 s⁻¹ | kon [2]: 2.26e+06 M⁻¹ s⁻¹ | Kd [4]: 13.6 nM | koff [4]: 0.0296 s⁻¹ | kon [4]: 2.33e+06 M⁻¹ s⁻¹

B8: P3A1 his (VNAR)
VNAR: T8 VNAR
notes: VNAR; also called P3A1 6xHis
Kd [8]: 7.8 nM | koff [8]: 0.0206 s⁻¹ | kon [8]: 2.92e+06 M⁻¹ s⁻¹ | binding result [9]: no binding

B9: P3A1 dimer, no tag (VNAR)
chain: TRVDQTPRTATKETGESLTINCVLTDTSYGLYSTSWFRKNPGTTDWERMSIGGRYVESVNKGAKSFSLRIKDLTVADSATYYCKAREARHPWLRQWYDGAGTVLTVNGGGGSGGGGSGGGGSGGGGSGGGGSTRVDQTPRTATKETGESLTINCVLTDTSYGLYSTSWFRKNPGTTDWERMSIGGRYVESVNKGAKSFSLRIKDLTVADSATYYCKAREARHPWLRQWYDGAGTVLTVN
Kd [8]: 0.36 nM | koff [8]: 0.000598 s⁻¹ | kon [8]: 1.67e+06 M⁻¹ s⁻¹ | binding result [9]: no binding

B10: P3A1-P3A1-S-mal-vcMMAE (VNAR)
chain: TRVDQTPRTATKETGESLTINCVLTDTSYGLYSTSWFRKNPGTTDWERMSIGGRYVESVNKGAKSFSLRIKDLTVADSATYYCKAREARHPWLRQWYDGAGTVLTVNGGGGSGGGGSGGGGSGGGGSGGGGSTRVDQTPRTATKETGESLTINCVLTDTSYGLYSTSWFRKNPGTTDWERMSIGGRYVESVNKGAKSFSLRIKDLTVADSATYYCKAREARHPWLRQWYDGAGTVLTVNQASGAHHHHHHGAEFEQKLISEEDL
modifications: C-terminal thiol conjugated to MC vc PAB MMAE
binding result [10]: no binding | Kd [11]: 0.59 nM | koff [11]: 0.0026 s⁻¹ | kon [11]: 4.96e+06 M⁻¹ s⁻¹

B11: P3A1-P3A1-Ox-vcMMAE (VNAR)
chain: B10 chain
modifications: C-terminal aminoxy oxime-linked to benzaldehyde PEG2 vc PAB MMAE
binding result [10]: no binding | Kd [11]: 1.43 nM | koff [11]: 0.00277 s⁻¹ | kon [11]: 2.07e+06 M⁻¹ s⁻¹

B12: P3A1-P3A1-Ox-MMAE (VNAR)
chain: B10 chain
modifications: C-terminal aminoxy oxime-linked to benzaldehyde PEG4 MMAE
binding result [10]: no binding | Kd [11]: 0.78 nM | koff [11]: 0.0032 s⁻¹ | kon [11]: 4.2e+06 M⁻¹ s⁻¹

B13: B1G1-B1G1 HisMyc (VNAR)
chain: TRVDQSPSSLSASVGDRVTITCVLTGANYGLASTYWYRKNPGSSNKEQISISGRYSESVNKGTKSFTLTISSLQPEDSATYYCRAYPWGAGAPWLVQWYDGAGTKVEIKGGGGSGGGGSGGGGSGGGGSGGGGSTRVDQSPSSLSASVGDRVTITCVLTGANYGLASTYWYRKNPGSSNKEQISISGRYSESVNKGTKSFTLTISSLQPEDSATYYCRAYPWGAGAPWLVQWYDGAGTKVEIKQASGAHHHHHHGAEFEQKLISEEDL
notes: VNAR fusion
Median YL1-PE [12]: 1470

B14: P3A1 Wobbe-G4S-BA11-Wobbe-G4S-P3A1 CysHisMyc (VNAR)
chain: TRVDQTPRTATKETGESLTINCVLTDTSYGLYSTSWFRKNPGTTDWERMSIGGRYVESVNKGAKSFSLRIKDLTVADSATYYCKAREARHPWLRQWYDGAGTVLTVNPGVQPSPGGGGSTRVDQSPSSLSASVGDRVTITCVLTDTSYPLYSTYWYRKNPGSSNKEQISISGRYSESVNKGTKSFTLTISSLQPEDSATYYCRAMSTNIWTGDGAGTKVEIKPGVQPSPGGGGSTRVDQTPRTATKETGESLTINCVLTDTSYGLYSTSWFRKNPGTTDWERMSIGGRYVESVNKGAKSFSLRIKDLTVADSATYYCKAREARHPWLRQWYDGAGTVLTVNQACKAHHHHHHGAEFEQKLISEEDL
notes: VNAR fusion; also called P3A1-BA11-P3A1
Kd [13]: 1.6 nM | binding result [14]: binds | Kd [15]: 2.54 nM | koff [15]: 0.00044 s⁻¹ | kon [15]: 173000 M⁻¹ s⁻¹ | Kd (human serum albumin): 5.58 nM | koff (human serum albumin): 0.00069 s⁻¹ | kon (human serum albumin): 124000 M⁻¹ s⁻¹

B15: BA11 Wobbe-G4S-P3A1-Wobbe-G4S-P3A1-CysHisMyc (VNAR)
chain: TRVDQSPSSLSASVGDRVTITCVLTDTSYPLYSTYWYRKNPGSSNKEQISISGRYSESVNKGTKSFTLTISSLQPEDSATYYCRAMSTNIWTGDGAGTKVEIKPGVQPSPGGGGSTRVDQTPRTATKETGESLTINCVLTDTSYGLYSTSWFRKNPGTTDWERMSIGGRYVESVNKGAKSFSLRIKDLTVADSATYYCKAREARHPWLRQWYDGAGTVLTVNPGVQPSPGGGGSTRVDQTPRTATKETGESLTINCVLTDTSYGLYSTSWFRKNPGTTDWERMSIGGRYVESVNKGAKSFSLRIKDLTVADSATYYCKAREARHPWLRQWYDGAGTVLTVNQACKAHHHHHHGAEFEQKLISEEDL
notes: VNAR fusion; also called BA11-P3A1-P3A1
Kd [13]: 2.53 nM | binding result [14]: binds | Kd [15]: 3.47 nM | koff [15]: 0.000447 s⁻¹ | kon [15]: 129000 M⁻¹ s⁻¹ | Kd (human serum albumin): 5.08 nM | koff (human serum albumin): 0.000566 s⁻¹ | kon (human serum albumin): 111000 M⁻¹ s⁻¹
